Test results: patent publication US20060088524A1 (BOARD OF TRUSTEES OF THE UNIVERSITY OF ILLINOIS, published 2006)

T1: recombinant human tissue factor (rTF), membrane-anchored, HPC4-tagged, cytoplasmic domain truncated
T1 chain: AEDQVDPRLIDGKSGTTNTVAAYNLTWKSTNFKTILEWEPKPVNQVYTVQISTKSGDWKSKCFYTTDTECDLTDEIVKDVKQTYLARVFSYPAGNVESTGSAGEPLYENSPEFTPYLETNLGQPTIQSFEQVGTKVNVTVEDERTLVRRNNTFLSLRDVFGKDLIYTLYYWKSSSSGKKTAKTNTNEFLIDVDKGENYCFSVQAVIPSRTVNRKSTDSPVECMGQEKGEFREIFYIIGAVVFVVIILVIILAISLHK

B1: coagulation factor VIIa (protein)
chain: ANAFLEELRPGSLERECKEEQCSFEEAREIFKDAERTKLFWISYSDGDQCASSPCQNGGSCKDQLQSYICFCLPAFEGRNCETHKDDQLICVNENGGCEQYCSDHTGTKRSCRCHEGYSLLADGVSCTPTVEYPCGKIPILEKRNASKPQGRIVGGKVCPKGECPWQVLLLVNGAQLCGGTLINTIWVVSAAHCFDKIKNWRNLIAVLGEHDLSEHDGDEQSRRVAQVIIPSTYVPGTTNHDIALLRLHQPVVLTDHVVPLCLPERTFSERTLAFVRFSLVSGWGQLLDRGATALELMVLNVPRLMTQDCLQQSRKVGDSPNITEYMFCAGYSDGSKDSCKGDSGGPHATHYRGTWYLTGIVSWGQGCATVGHFGVYTRVSQYIEWLQKLMRSEPRPGVLLRAPFP

Legend:
[1] = target: TF:VIIa complex (1:1 complex of rTF and factor VIIa on a phospholipid surface) (UniProt P08709)
[2] = target: T1, recombinant human tissue factor (rTF), …

Row | Molecule | Km for factor X activation; TF-Nanodiscs, 10% PS, 90% PC [1] | Km for factor X activation; TF-Nanodiscs, 20% PS, 80% PC [1] | Km for factor X activation; TF-Nanodiscs, 30% PS, 70% PC [1] | Km for factor X activation; TF-liposomes, 20% PS, 80% PC [1] | Km, app for factor X activation; rTF in PCPS vesicles [1] | Km, app for factor X activation; rTF-PCPS-nanoscale discs [1] | procoagulant activity (plasma clotting) of TF-containing nanoscale discs [2]
1 | coagulation factor X | 0.132 µM | 0.0686 µM | 0.0452 µM | 0.0202 µM | 0.0202 µM | 0.0686 µM | –
2 | B1 | – | – | – | – | – | – | the resultant discs exhibit strong procoagulant activity
